{"source": "patent US20100313281A1", "about": "(published 2010)", "proteins": {"B1": {"name": "Human Ztgfβ-9 protein (ligand)", "chain": "AGAPRAGRRPARPRGCADRPEELLEQLYGRLAAGVLSAFHHTLQLGPREQARNASCPAGGRPADRRFRPPTNLRSVSPWAYRISYDPARYPRYLPEAYCLCRGCLTGLFGEEDVRFRSAPVYMPTVVLRRTPACAGGRSVYTEAYVTIPVGCTCVPEPEKDADSINSSIDKQGAKLLLGPNDAPAGP", "notes": "also called transforming growth factor beta-9"}}, "biological_target": "the molecule itself", "assay": "western blot of BHK media, reducing (29 kDa) against non-reducing (49 kDa) conditions", "experimental": "Following selection for stable cell transfectants, media isolated from pools was analyzed by western blot under reducing and non-reducing conditions using a Ztgfβ-9 antibody or an anti-EE epitope tag antibody. […] Under non-reducing conditions, Ztgfβ-9 protein migrated as at 49 kDa species. […] C-terminal EE tagged human Ztgfβ-9 expressed in BHK cells was also anti-EE affinity purified and its N-terminal sequence determined."}
{"protein": "B1", "values": [{"measurement": "binding result", "value": "binds"}]}
